{
  "source": "paper PMC8546710",
  "key": {"[1]": {"molecular_target": "CDV M protein (strain A75/17) mutant G245P (canine distemper virus, strain A75/17)", "assay": "co-IP; FLAG-M and 2×HA-longlinker-M, both bearing the same mutation, cotransfected in HEK-293T; lysed 24 h posttransfection in 50 mM Tris pH 7.4, 150 mM NaCl, 0.05% NP-40, 5% glycerol, 20 mM sodium molybdate; IP with anti-HA (16B12) and Dynabeads Protein G at 4°C; blot with polyclonal anti-CDV M; coIP efficiency index = (coIP/IP)/(ratio in total lysates), normalised to wt = 100%"}, "[2]": {"molecular_target": "CDV M protein (strain A75/17) mutant K238E (canine distemper virus, strain A75/17)", "assay": "co-IP; FLAG-M and 2×HA-longlinker-M, both bearing the same mutation, cotransfected in HEK-293T; lysed 24 h posttransfection in 50 mM Tris pH 7.4, 150 mM NaCl, 0.05% NP-40, 5% glycerol, 20 mM sodium molybdate; IP with anti-HA (16B12) and Dynabeads Protein G at 4°C; blot with polyclonal anti-CDV M; coIP efficiency index = (coIP/IP)/(ratio in total lysates), normalised to wt = 100%"}, "[3]": {"molecular_target": "CDV M protein (strain A75/17) mutant A94S", "assay": "coimmunoprecipitation (coIP efficiency index, Western blot band quantification)", "details": "2xHA-M and FLAG-M co-expressed in HEK-293T cells; IP anti-HA, IB anti-M; parent: est. 100; read off a plot"}, "[4]": {"molecular_target": "CDV M protein (strain A75/17) mutant D235N", "assay": "coimmunoprecipitation (coIP efficiency index, Western blot band quantification)", "details": "2xHA-M and FLAG-M co-expressed in HEK-293T cells; IP anti-HA, IB anti-M; parent: est. 100; read off a plot"}, "[5]": {"molecular_target": "CDV M protein (strain A75/17) mutant E89D", "assay": "coimmunoprecipitation (coIP efficiency index, Western blot band quantification)", "details": "2xHA-M and FLAG-M co-expressed in HEK-293T cells; IP anti-HA, IB anti-M; parent: est. 100; read off a plot"}, "[6]": {"molecular_target": "CDV M protein (strain A75/17) mutant E89G", "assay": "coimmunoprecipitation (coIP efficiency index, Western blot band quantification)", "details": "2xHA-M and FLAG-M co-expressed in HEK-293T cells; IP anti-HA, IB anti-M; parent: est. 100; read off a plot"}, "[7]": {"molecular_target": "CDV M protein (strain A75/17) mutant E89H", "assay": "coimmunoprecipitation (coIP efficiency index, Western blot band quantification)", "details": "2xHA-M and FLAG-M co-expressed in HEK-293T cells; IP anti-HA, IB anti-M; parent: est. 100; read off a plot"}, "[8]": {"molecular_target": "CDV M protein (strain A75/17) mutant E89K", "assay": "coimmunoprecipitation (coIP efficiency index, Western blot band quantification)", "details": "2xHA-M and FLAG-M co-expressed in HEK-293T cells; IP anti-HA, IB anti-M; parent: est. 100; read off a plot"}, "[9]": {"molecular_target": "CDV M protein (strain A75/17) mutant E89R", "assay": "coimmunoprecipitation (coIP efficiency index, Western blot band quantification)", "details": "2xHA-M and FLAG-M co-expressed in HEK-293T cells; IP anti-HA, IB anti-M; parent: est. 100; read off a plot"}, "[10]": {"molecular_target": "CDV M protein (strain A75/17) mutant E89Y", "assay": "coimmunoprecipitation (coIP efficiency index, Western blot band quantification)", "details": "2xHA-M and FLAG-M co-expressed in HEK-293T cells; IP anti-HA, IB anti-M; parent: est. 100; read off a plot"}, "[11]": {"molecular_target": "CDV M protein (strain A75/17) mutant E242Q", "assay": "coimmunoprecipitation (coIP efficiency index, Western blot band quantification)", "details": "2xHA-M and FLAG-M co-expressed in HEK-293T cells; IP anti-HA, IB anti-M; parent: est. 100; read off a plot"}, "[12]": {"molecular_target": "CDV M protein (strain A75/17) mutant G245P", "assay": "coimmunoprecipitation (coIP efficiency index, Western blot band quantification)", "details": "2xHA-M and FLAG-M co-expressed in HEK-293T cells; IP anti-HA, IB anti-M; parent: est. 100; read off a plot"}, "[13]": {"molecular_target": "CDV M protein (strain A75/17) mutant K92E", "assay": "coimmunoprecipitation (coIP efficiency index, Western blot band quantification)", "details": "2xHA-M and FLAG-M co-expressed in HEK-293T cells; IP anti-HA, IB anti-M; parent: est. 100; read off a plot"}, "[14]": {"molecular_target": "CDV M protein (strain A75/17) mutant K238E", "assay": "coimmunoprecipitation (coIP efficiency index, Western blot band quantification)", "details": "2xHA-M and FLAG-M co-expressed in HEK-293T cells; IP anti-HA, IB anti-M; bar marked 'Poorly expressed'; parent: est. 100; read off a plot"}, "[15]": {"molecular_target": "CDV M protein (strain A75/17) mutant K240Q", "assay": "coimmunoprecipitation (coIP efficiency index, Western blot band quantification)", "details": "2xHA-M and FLAG-M co-expressed in HEK-293T cells; IP anti-HA, IB anti-M; parent: est. 100; read off a plot"}, "[16]": {"molecular_target": "CDV M protein (strain A75/17) mutant K243E", "assay": "coimmunoprecipitation (coIP efficiency index, Western blot band quantification)", "details": "2xHA-M and FLAG-M co-expressed in HEK-293T cells; IP anti-HA, IB anti-M; parent: est. 100; read off a plot"}, "[17]": {"molecular_target": "CDV M protein (strain A75/17) mutant L96N", "assay": "coimmunoprecipitation (coIP efficiency index, Western blot band quantification)", "details": "2xHA-M and FLAG-M co-expressed in HEK-293T cells; IP anti-HA, IB anti-M; parent: est. 100; read off a plot"}, "[18]": {"molecular_target": "CDV M protein (strain A75/17) mutant L239D", "assay": "coimmunoprecipitation (coIP efficiency index, Western blot band quantification)", "details": "2xHA-M and FLAG-M co-expressed in HEK-293T cells; IP anti-HA, IB anti-M; parent: est. 100; read off a plot"}, "[19]": {"molecular_target": "CDV M protein (strain A75/17) mutant P87A", "assay": "coimmunoprecipitation (coIP efficiency index, Western blot band quantification)", "details": "2xHA-M and FLAG-M co-expressed in HEK-293T cells; IP anti-HA, IB anti-M; parent: est. 100; read off a plot"}, "[20]": {"molecular_target": "CDV M protein (strain A75/17) mutant Y236F", "assay": "coimmunoprecipitation (coIP efficiency index, Western blot band quantification)", "details": "2xHA-M and FLAG-M co-expressed in HEK-293T cells; IP anti-HA, IB anti-M; parent: est. 100; read off a plot"}},
  "data": [
    {"substance": "CDV M protein (strain A75/17) mutant G245P (natural protein)", "values": [
      {"measurement": "coIP efficiency index (normalised to wt)", "setting": "[1]", "result": 3.8, "unit": "%"}
    ]},
    {"substance": "CDV M protein (strain A75/17) mutant K238E (natural protein)", "values": [
      {"measurement": "coIP efficiency index (normalised to wt)", "setting": "[2]", "result": 9.7, "unit": "%"}
    ]},
    {"substance": "canine distemper virus (CDV) matrix (M) protein, strain A75/17, wild type A94S", "values": [
      {"measurement": "percent of parent (percent to wt)", "setting": "[3]", "result": 98}
    ]},
    {"substance": "canine distemper virus (CDV) matrix (M) protein, strain A75/17, wild type D235N", "values": [
      {"measurement": "percent of parent (percent to wt)", "setting": "[4]", "result": 120}
    ]},
    {"substance": "canine distemper virus (CDV) matrix (M) protein, strain A75/17, wild type E89D", "values": [
      {"measurement": "percent of parent (percent to wt)", "setting": "[5]", "result": 80}
    ]},
    {"substance": "canine distemper virus (CDV) matrix (M) protein, strain A75/17, wild type E89G", "values": [
      {"measurement": "percent of parent (percent to wt)", "setting": "[6]", "result": 47}
    ]},
    {"substance": "canine distemper virus (CDV) matrix (M) protein, strain A75/17, wild type E89H", "values": [
      {"measurement": "percent of parent (percent to wt)", "setting": "[7]", "result": 98}
    ]},
    {"substance": "canine distemper virus (CDV) matrix (M) protein, strain A75/17, wild type E89K", "values": [
      {"measurement": "percent of parent (percent to wt)", "setting": "[8]", "result": 83}
    ]},
    {"substance": "canine distemper virus (CDV) matrix (M) protein, strain A75/17, wild type E89R", "values": [
      {"measurement": "percent of parent (percent to wt)", "setting": "[9]", "result": 77}
    ]},
    {"substance": "canine distemper virus (CDV) matrix (M) protein, strain A75/17, wild type E89Y", "values": [
      {"measurement": "percent of parent (percent to wt)", "setting": "[10]", "result": 91}
    ]},
    {"substance": "canine distemper virus (CDV) matrix (M) protein, strain A75/17, wild type E242Q", "values": [
      {"measurement": "percent of parent (percent to wt)", "setting": "[11]", "result": 150}
    ]},
    {"substance": "canine distemper virus (CDV) matrix (M) protein, strain A75/17, wild type G245P", "values": [
      {"measurement": "percent of parent (percent to wt)", "setting": "[12]", "result": 4}
    ]},
    {"substance": "canine distemper virus (CDV) matrix (M) protein, strain A75/17, wild type K92E", "values": [
      {"measurement": "percent of parent (percent to wt)", "setting": "[13]", "result": 87}
    ]},
    {"substance": "canine distemper virus (CDV) matrix (M) protein, strain A75/17, wild type K238E", "values": [
      {"measurement": "percent of parent (percent to wt)", "setting": "[14]", "result": 9}
    ]},
    {"substance": "canine distemper virus (CDV) matrix (M) protein, strain A75/17, wild type K240Q", "values": [
      {"measurement": "percent of parent (percent to wt)", "setting": "[15]", "result": 100}
    ]},
    {"substance": "canine distemper virus (CDV) matrix (M) protein, strain A75/17, wild type K243E", "values": [
      {"measurement": "percent of parent (percent to wt)", "setting": "[16]", "result": 97}
    ]},
    {"substance": "canine distemper virus (CDV) matrix (M) protein, strain A75/17, wild type L96N", "values": [
      {"measurement": "percent of parent (percent to wt)", "setting": "[17]", "result": 96}
    ]},
    {"substance": "canine distemper virus (CDV) matrix (M) protein, strain A75/17, wild type L239D", "values": [
      {"measurement": "percent of parent (percent to wt)", "setting": "[18]", "result": 110}
    ]},
    {"substance": "canine distemper virus (CDV) matrix (M) protein, strain A75/17, wild type P87A", "values": [
      {"measurement": "percent of parent (percent to wt)", "setting": "[19]", "result": 120}
    ]},
    {"substance": "canine distemper virus (CDV) matrix (M) protein, strain A75/17, wild type Y236F", "values": [
      {"measurement": "percent of parent (percent to wt)", "setting": "[20]", "result": 84}
    ]}
  ]
}
